Results on one molecule are retold here after article PMC7219239, “Folding-Based Electrochemical Aptasensor for the Determination of β-Lactoglobulin on Poly-L-Lysine Modified Graphite Electrodes”.

For the data set, the target named is T1, beta-lactoglobulin B (β-LG) (Bos taurus? (cow's milk), UniProt P02754 17-178).
T1 sequence: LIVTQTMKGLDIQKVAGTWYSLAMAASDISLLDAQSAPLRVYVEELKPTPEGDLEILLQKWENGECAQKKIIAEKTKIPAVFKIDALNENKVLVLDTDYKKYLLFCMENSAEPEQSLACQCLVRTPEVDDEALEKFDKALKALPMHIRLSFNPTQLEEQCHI
The experiment in a line: electrochemical folding-based aptasensor (DPV, MB signal-on); PBS-based buffer without MgCl2; 45 min incubation; linear 0.1-10 ng/mL, LOD 0.09 ng/mL; no Kd in the material; Measurement in PBS-based buffer without MgCl2 (wash buffer 0.1 M PBS, 150 mM NaCl, pH 7.4), 45 min; aptamer immobilized at 1 µM in 50 mM Tris, 150 mM NaCl, 2 mM MgCl2, pH 7.4; temperature not stated. Particulars: protein: commercial; chain copies: 2; label: methylene blue (3').

B1: anti-β-LG aptamer, thiolated, MB-tagged (ssDNA)
DNA: CGACGATCGGACCGCAGTACCCACCCACCAGCCCCAACATCATGCCCATCCGTGTGTG
modifications: 5'-thiol (HS); 3'-methylene blue
B1: the binding result is reported as “binds”.
